Data reported in the nanobody polyreactivity screen of Harvey et al. (2022).

Assay: yeast display, Sf9 membrane polyspecificity reagent, FACS + sequencing; frameworks hold sequencing errors
How it was run: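 Nanobodies from a synthetic yeast display library (Saccharomyces cerevisiae BJ5465), induced 36–48 hours with galactose, were stained 1 hour at 4 °C with 10% biotinylated, detergent-solubilized Sf9 membrane reagent, enriched on streptavidin microbeads, then FACS-sorted. Anti-HA (expression) and streptavidin (reagent binding) fluorescence set low and high (top ~1%) gates. Polyreactivity labels come from the gate of origin. Genes were colony-PCR amplified, MiSeq 2 × 250 sequenced and filtered by CDR length.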

Row | Sequence | polyreactivity (PSR sort gate)
1 | QVQLVESGGGLVQAGGSLRLSCAASGFIFDTYAMGWYRQAPGKERELVAAISYRGGSTYYADSVKGRFTISRDNAKNTVYLQMNSLKPEDTAVYYCNAYWRYSYFGRDYWGQGTQVTVSS | low polyreactivity
2 | QVQLVESGGGLVQAGGSLRLSCAASGSILRQYAMGWYRQAPGKERELVATITGDGSTNYADSVKGRFTISRDNAKNTVYLQMNSLKPEDTAVYYCNTYLTYPYPNVEVLVYGFKLDYWGQGTQVTVSS | low polyreactivity
3 | EVQLVESGGGLVQAGGSLRLSCAASGSTFRYNAMGWSRQAPGKEWEFVATISWTTGSTYYADSVKGRFTISRDNAKNTVYLQMNCLNAEDTAVYYCAAVASLFSDFRDYDYWGQGTQVTVSS | low polyreactivity
4 | QVQLVESGGGLVQAGGSLRLSCAASGRIFSVNVMVWYRQAPGKERELVAAITWSVGSTYYADSVKARFTISRDNAKYTVSLQMYSLKPEDTAVYYSAARVPPVYGRVGGYHYWGQGTQVTVSS | low polyreactivity
5 | QVQLVESGGGLVQAGGSLRLSCAASGNTFVYNAMGWYRQAPGKERELVAGLTKTGGRTYYADSVKGRVTISRDNAKNTVYLQMNSLKPEETAVYYCAARPWNDGYYVGRFHMDYWGQGTQVTVSS | low polyreactivity
6 | QVQLVESGGGLVEAGGSLRLSCAASGSTFGVNAMGWSRQAPGKERELVAVITRSGGSTYYADSVKGRFTISRDNAKNTVYLQMNSLKPEDTAVYYCAKSGVVDWGQGTQVTVSS | low polyreactivity
7 | QVQLVESGGGLVQAGGSLRLSCAASGITFYRYVMGWYRQAPGKERELVAAITSRGGSTSYADSVKGRFTISRDNAKNTVYLQMNSLKPEDTAVYYCAAVYRRDYDYWGQGTQVTVSS | high polyreactivity
8 | QVQLVESGGGLVQAGGSLRLSCAASGRTFGWYDMGWYRQAPGKERELVAAISWSGSSTYYADSVKGRFTISRDNAKNTVYLQMNSLKPEDNAVYYFNDVIRSDLFSYLDGRYDYWGQGTQVTVSS | high polyreactivity
9 | QVQLVESGGGLVQAGGSLRLSCAASGRIFYFYAMGWSRQAPGKERELVAAITGSAGGTYYADSVKGRFTISRDTAKNTVYLQMNSLKPEDTAVYYCAAKYYGNKRDLYYWGQGTQVTVSS | low polyreactivity
10 | QDQLVESGGGLVQAGGSLRLSCAASGIIFHFNDMGWYRQAPGKERELVAAITSGGSTNYADSVKGRFTISRDNAKNTLYLQMNSLKPEDTAVYYCAARRGLRLFAYRHGYWGQGTQVTVSS | low polyreactivity
11 | QVQLVESGGGLVQAGGSLRLSCAASGFTFYAYAMGWYRQAPGKERELVAAITWDDDSTSYADSVKGRFTISRDNAKNTVYLQMNSLKPEDTAVYYCAADSIRHRRYKYDYWGQGTQVTVSS | low polyreactivity
12 | QVQLVESGGGLVQAGGSLRLSCAASGFTFRGNAMGWYRQAPGKERELVAAITSSDDSTYYADSVKGRFTISRDNAKNTVYLQMNSLKPEDTAVYYCAVYFFSFWGQGTQVTVSS | low polyreactivity
13 | QVQLVESGGGLVQAGGSLRLSCAASGSTFGRNAMGWYRQAPGKERELVAAISKTGGSTYYADSVKGRFTISRDNAKNTVYLQMNSLKPEDTAVYYCAARIRGFRTYYYWGQGTQVTVSS | high polyreactivity
14 | QVQLVESGGGLVQAGGSLRLSCGASGSIFKYYAMGWYREARGKERELVAAITWSGGRTNYADSVKGRFTISRDNAKNTVYLQMNSLKPEDTAVYYCAATRRRYRPYEYWGLGTQVTVSS | high polyreactivity
15 | QVQLVESGGGLVQAGGSLRLSCAASGSIFYLYAMGWYRQAPGKERELVAGITTSGGTTYYADSVKGRFTISRDNAKNTVYLQMNSLKPEDTAVYYCNAAVGYYSLPYDYWGQGTQVTVSS | low polyreactivity
16 | QVQLVESGGGLVQAGGSLRLSCAASGRTFYRYVMGWYRQAPGKERELVAAIRSSGTSTYYADSVKGRFTISRDNAKNTVYLQMNSLKPEDTAVYYCARDSYRGYVYSLDYWGQGTQVTVSS | high polyreactivity
17 | QVQLEESGGGLVQAGGSLRLSCAASGSIFFFYAMGWYRQAPGKERELVAAISSDGSTKYADSVKGRFTISRDNAKNTVYLQMNILKPEDTAVYYCNADKWSVVGYVLGFYRDDYWGQGTQVTVSS | low polyreactivity
18 | QVQLVESGGGLVQAGGSLRVSCAASGIIFDYYVMGWYRQAPGQERELVAAISRSCDRTNYADSVKGRFTISRDNAKNTVYLQMNSLKPEDTAVYYCAARVSIRGGGYEYWGQGTQLTVSS | high polyreactivity
19 | QVQLVESGGGLVQAGGSLRLSCAASGSTFFSNAMGWYRQAPGKERELVAAISGSGDSTYYADSVKGRFTISRDNAKNTVYLQMNSLKPEDTAVYYCAARLSTAHYYLGDYWGQGTEVTVSS | low polyreactivity
20 | QVQLVESGGGLVQAGGSLRLSCAASGSIFVYYGMGWYRQAPGKERELFAAISSGGSTHYADSVKGRFTISRDNAKNTVYLQMNSLKPEDTAVYYCAADRFFWLRSYPRYYYWGQGTQVTVSS | low polyreactivity
21 | QVQLVESGGGLVQAGGSLRLSCAASGSTFSYAMGWYRQAPGKERELVAAITTSGGSTYYADSVKGRFTISRDNAKNTVYLQMNSLKPVDTAVDYCARERYYRRFYRPRRYDYWGQGTQVTVSS | low polyreactivity
